Earlier results, collected in PMC10035860.

Target: growth hormone receptor (Homo sapiens) (UniProt P10912)
UniProt P10912, sequence (P10912 19-638): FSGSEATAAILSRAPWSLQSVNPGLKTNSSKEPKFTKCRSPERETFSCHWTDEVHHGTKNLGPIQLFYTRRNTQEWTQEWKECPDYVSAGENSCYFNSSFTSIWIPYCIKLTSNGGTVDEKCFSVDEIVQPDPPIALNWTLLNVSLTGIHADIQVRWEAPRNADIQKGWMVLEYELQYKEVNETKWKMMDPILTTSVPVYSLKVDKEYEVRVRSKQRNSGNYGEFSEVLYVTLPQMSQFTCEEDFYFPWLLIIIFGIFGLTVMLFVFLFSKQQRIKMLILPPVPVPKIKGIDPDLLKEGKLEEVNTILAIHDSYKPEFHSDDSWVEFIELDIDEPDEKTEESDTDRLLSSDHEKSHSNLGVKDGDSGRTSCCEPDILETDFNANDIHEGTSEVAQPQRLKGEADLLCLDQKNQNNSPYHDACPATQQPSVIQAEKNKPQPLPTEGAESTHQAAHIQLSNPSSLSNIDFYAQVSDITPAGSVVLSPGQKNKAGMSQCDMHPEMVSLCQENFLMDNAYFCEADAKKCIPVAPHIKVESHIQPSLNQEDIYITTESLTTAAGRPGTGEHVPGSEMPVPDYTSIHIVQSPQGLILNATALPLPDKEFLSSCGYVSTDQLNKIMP

growth hormone, sequence (P01241 27-217): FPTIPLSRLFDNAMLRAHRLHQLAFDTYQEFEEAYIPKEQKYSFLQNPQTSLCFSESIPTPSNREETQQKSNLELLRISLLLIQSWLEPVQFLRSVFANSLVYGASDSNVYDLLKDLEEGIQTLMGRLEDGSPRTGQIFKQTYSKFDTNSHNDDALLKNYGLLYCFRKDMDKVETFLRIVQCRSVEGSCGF

Kd: 0.3 nM
Substance: growth hormone (from UniProt P01241)
